Data: EP4613767 (dated 2025)
Positions count from the first letter of the chain named.

What was measured:
[1] = biological target: T1, human CD3 (Jurkat cells) (human, UniProt P07766); experiment: FACS, Jurkat cells
T1 chain: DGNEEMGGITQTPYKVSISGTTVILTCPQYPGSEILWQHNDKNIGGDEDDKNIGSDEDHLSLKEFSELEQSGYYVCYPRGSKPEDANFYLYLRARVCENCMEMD

[2] = biological target: T2, human CD3 E&D protein (human, UniProt P07766); experiment: SPR
T2 chain 1: T1 chain
T2 chain 2: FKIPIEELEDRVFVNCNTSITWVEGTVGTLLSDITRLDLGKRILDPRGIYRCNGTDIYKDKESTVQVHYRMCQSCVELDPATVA

[3] = biological target: human GPC3 protein (human, UniProt P51654); experiment: SPR
Chain of human GPC3 protein (P51654 25-554): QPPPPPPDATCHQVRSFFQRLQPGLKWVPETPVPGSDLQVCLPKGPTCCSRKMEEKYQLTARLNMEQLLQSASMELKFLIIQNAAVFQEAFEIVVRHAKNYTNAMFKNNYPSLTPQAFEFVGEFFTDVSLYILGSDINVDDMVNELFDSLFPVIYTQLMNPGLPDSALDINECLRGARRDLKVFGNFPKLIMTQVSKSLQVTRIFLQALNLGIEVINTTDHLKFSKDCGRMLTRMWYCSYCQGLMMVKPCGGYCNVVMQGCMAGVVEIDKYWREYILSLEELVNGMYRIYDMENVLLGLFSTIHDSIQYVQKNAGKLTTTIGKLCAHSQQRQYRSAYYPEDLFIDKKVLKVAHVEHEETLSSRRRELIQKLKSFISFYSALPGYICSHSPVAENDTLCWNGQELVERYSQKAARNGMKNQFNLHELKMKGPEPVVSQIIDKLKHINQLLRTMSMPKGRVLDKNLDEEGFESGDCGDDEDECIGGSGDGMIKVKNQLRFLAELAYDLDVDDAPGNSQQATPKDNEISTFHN

[4] = biological target: human GPC3 (HepG2 cells) (human, UniProt P51654); experiment: FACS, HepG2 cells
Chain of human GPC3 (HepG2 cells) (P51654 25-554): as above

[5] = biological target: T3, monkey CD3 E&D protein (cynomolgus monkey, UniProt Q95LI5); experiment: SPR
T3 chain 1: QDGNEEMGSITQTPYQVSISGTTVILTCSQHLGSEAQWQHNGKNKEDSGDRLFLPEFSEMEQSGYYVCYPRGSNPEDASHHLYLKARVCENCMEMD
T3 chain 2: T2 chain 2 with I5V, N15K, I20V, S32T, D33N, I34N, T64A, S74N, V83L

B1: G100 (anti-CD3 scFv arm) (antibody, V domains shown)
VH: EVKLVESGGGLVQPGGSLKLSCAASGFTFNTYAMNWVRQAPGKGLEWVARIRSKYNNYATYYADSVKDRFTISRDDAKNTLYLQMNNLRTEDTAVYYCVRHGNFGNSYVSWFAYWGQGTLVTVSS
VL: QAVVTQEPSLTVSPGGTVTLTCRSSTGAVTTSNYANWVQQKPGQAPRGLIGGTNKRAPGTPARFSGSLLGGKAALTLSGAQPEDEAEYYCALWYSNLWVFGGGTKLTVL
For B1, the EC50 [1] was 23.9 nM.

B2: G100 (anti-CD3 scFv arm) (antibody, V domains shown)
VH: B1 VH
VL: B1 VL
modifications: Acro CDD-H52W1
In the case of B2, the Kd [2] is reported as 3.49 nM.

B3: G156 (anti-GPC3 VHH arm, two VHH copies, Format 2) (antibody, V domains shown)
VH: QVQLVESGGGVVQPGGSLRLSCAASGRTLTNYVMGWFRQAPGKEREIVAGINWAGSRIGYGDFVKGRFTISRDNSKNTVYLQMNSLRPEDTAVYYCAAKLGKYNYPEYDYRGQGTLVTVSS
VL: B1 VL
In the case of B3, the Kd [3] is reported as 5.42 nM and the EC50 [4] is reported as 0.16 nM.

B4: G156 (anti-CD3 scFv arm) (antibody, V domains shown)
VH: B1 VH
VL: B1 VL
modifications: Acro CDD-C52W4
With B4 the Kd [5] was 2.79 nM.

B5: G100 (anti-CD3 scFv arm) (antibody, V domains shown)
VH: B1 VH
VL: B1 VL
modifications: Acro CDD-C52W4
B5 gave a Kd [5] of 5.66 nM.

B6: G156 (anti-CD3 scFv arm) (antibody, V domains shown)
VH: B1 VH
VL: B1 VL
modifications: Acro CDD-H52W1
With B6 the Kd [2] was 1.3 nM.

B7: G100 (anti-GPC3 VHH arm, monovalent, Format 1) (antibody, V domains shown)
VH: B3 VH
VL: B1 VL
B7 was tested, and the Kd [3] was 8.36 nM and the EC50 [4] was 0.42 nM.

B8: G156 (anti-CD3 scFv arm) (antibody, V domains shown)
VH: B1 VH
VL: B1 VL
B8 showed an EC50 [1] of 27.4 nM.
